Measurements reported in article PMC9482650, “Quantitative fragmentomics allow affinity mapping of interactomes” (Nature Communications, 2022).

Experiments:
Experiment in all cases: holdup assay
Design in all cases: key: below the threshold = too weak to quantify, mostly under pKd 3.1 to 4
Conditions in all cases: plain residues with an end cap or a label only (N-terminal biotin on a linker: ado-ado)
[1] = target: T1, APBA2_1, Q99767
T1 sequence (Q99767 563-664, limits assumed, looked up): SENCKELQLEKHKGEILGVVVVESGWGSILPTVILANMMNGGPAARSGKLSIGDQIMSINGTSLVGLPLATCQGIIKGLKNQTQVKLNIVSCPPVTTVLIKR

[2] = target: T2, ARHGEF11, O15085
T2 sequence (O15085 42-136, limits assumed, looked up): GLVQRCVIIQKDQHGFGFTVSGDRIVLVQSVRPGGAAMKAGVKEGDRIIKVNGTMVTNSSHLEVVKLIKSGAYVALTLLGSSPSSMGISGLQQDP

[3] = target: ARHGEF12, Q9NZN5-2
Sequence of ARHGEF12, Q9NZN5-2 (Q9NZN5 other isoform, or with tags, fused parts or gaps): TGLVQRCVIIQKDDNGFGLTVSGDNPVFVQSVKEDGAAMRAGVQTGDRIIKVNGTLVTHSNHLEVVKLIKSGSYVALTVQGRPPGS

[4] = target: DLG2_2, Q15700
[5] = target: DLG2_3, Q15700
[6] = target: GIPC2, Q8TF65
Sequence of GIPC2, Q8TF65 (Q8TF65 112-203): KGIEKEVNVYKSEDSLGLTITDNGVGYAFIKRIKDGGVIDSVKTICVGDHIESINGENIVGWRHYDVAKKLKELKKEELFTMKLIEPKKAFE

[7] = target: GOPC, Q9HD26
[8] = target: T3, GRIP1_2, Q9Y3R0
T3 sequence (Q9Y3R0 145-248, limits assumed, looked up): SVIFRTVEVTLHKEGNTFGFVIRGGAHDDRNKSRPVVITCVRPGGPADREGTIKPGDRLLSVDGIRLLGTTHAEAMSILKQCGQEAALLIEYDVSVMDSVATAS

[9] = target: T4, GRIP1_3, Q9Y3R0
T4 sequence (Q9Y3R0 247-346, limits assumed, looked up): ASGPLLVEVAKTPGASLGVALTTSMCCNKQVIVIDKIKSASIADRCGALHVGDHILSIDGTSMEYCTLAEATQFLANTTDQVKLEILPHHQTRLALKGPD

[10] = target: T5, GRIP1_4, Q9Y3R0
T5 sequence (Q9Y3R0 467-571, limits assumed, looked up): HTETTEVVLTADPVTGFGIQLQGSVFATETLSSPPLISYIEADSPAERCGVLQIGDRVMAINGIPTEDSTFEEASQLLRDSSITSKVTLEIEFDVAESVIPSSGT

[11] = target: GRIP2_7, Q9C0E4
Sequence of GRIP2_7, Q9C0E4 (Q9C0E4 934-1023): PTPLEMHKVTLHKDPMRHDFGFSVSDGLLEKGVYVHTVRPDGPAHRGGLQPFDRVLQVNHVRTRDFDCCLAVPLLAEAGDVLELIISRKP

[12] = target: HTRA2, O43464
Sequence of HTRA2, O43464 (O43464 355-458): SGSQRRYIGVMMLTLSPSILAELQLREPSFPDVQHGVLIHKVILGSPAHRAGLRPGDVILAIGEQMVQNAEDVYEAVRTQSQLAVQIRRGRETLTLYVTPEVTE

[13] = target: Inadl_1, Q8NI35
Sequence of Inadl_1, Q8NI35 (Q8NI35 113-229): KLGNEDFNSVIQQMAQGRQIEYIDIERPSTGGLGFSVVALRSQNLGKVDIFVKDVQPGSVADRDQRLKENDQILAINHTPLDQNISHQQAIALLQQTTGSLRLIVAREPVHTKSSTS

[14] = target: Inadl_3, Q8NI35
Sequence of Inadl_3, Q8NI35 (Q8NI35 359-469): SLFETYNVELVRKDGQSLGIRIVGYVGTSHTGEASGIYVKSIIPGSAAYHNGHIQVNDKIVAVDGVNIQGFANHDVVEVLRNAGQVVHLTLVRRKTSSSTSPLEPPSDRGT

[15] = target: Inadl_4, Q8NI35
Sequence of Inadl_4, Q8NI35 (Q8NI35 547-651): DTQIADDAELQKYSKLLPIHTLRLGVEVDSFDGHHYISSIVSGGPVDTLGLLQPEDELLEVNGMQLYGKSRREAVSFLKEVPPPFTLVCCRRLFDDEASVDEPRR

[16] = target: LDB3, O75112
Sequence of LDB3, O75112 (O75112 1-94): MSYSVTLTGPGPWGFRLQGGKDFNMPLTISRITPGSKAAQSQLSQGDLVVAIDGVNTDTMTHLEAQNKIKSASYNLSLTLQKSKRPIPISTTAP

[17] = target: LNX1_2, Q8TBB1
Sequence of LNX1_2, Q8TBB1 (Q8TBB1 371-470): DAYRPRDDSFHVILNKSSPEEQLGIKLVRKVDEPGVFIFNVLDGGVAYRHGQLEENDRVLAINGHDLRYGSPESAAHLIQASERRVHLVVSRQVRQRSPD

[18] = target: T6, LNX2_2, Q8N448
T6 sequence (Q8N448 334-432, limits assumed, looked up): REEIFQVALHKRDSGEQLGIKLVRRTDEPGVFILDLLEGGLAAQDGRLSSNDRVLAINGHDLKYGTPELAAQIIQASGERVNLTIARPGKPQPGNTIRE

[19] = target: MAST2, Q6P0Q8
Sequence of MAST2, Q6P0Q8 (Q6P0Q8 1099-1202): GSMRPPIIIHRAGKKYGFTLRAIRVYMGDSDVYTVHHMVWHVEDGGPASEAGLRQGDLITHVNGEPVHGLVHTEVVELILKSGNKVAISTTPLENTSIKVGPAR

[20] = target: T7, MPDZ_12, O75970
T7 sequence (O75970 1857-1958, limits assumed, looked up): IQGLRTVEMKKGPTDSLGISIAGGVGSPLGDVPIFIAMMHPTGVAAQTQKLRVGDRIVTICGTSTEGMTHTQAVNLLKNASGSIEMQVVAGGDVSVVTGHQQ

[21] = target: PDLIM1, O00151
Sequence of PDLIM1, O00151 (O00151 1-87): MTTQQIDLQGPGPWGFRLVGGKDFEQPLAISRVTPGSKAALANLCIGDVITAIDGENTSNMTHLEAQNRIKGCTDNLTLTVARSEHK

[22] = target: T8, PDZD7_3, Q9H5P4
T8 sequence (Q9H5P4 857-944, limits assumed, looked up): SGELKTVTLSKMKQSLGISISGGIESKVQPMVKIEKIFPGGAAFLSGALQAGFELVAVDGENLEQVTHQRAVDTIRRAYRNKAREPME

[23] = target: PICK1, Q9NRD5
Sequence of PICK1, Q9NRD5 (Q9NRD5 17-115): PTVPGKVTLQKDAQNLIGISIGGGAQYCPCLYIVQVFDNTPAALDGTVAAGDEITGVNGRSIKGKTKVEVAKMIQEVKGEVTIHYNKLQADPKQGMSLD

[24] = target: T9, PTPN13_1, Q12923
T9 sequence (Q12923 1088-1188, limits assumed, looked up): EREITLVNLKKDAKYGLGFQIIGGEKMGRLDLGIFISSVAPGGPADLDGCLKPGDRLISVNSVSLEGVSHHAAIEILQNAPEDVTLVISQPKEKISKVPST

[25] = target: SCRIB_1, Q14160
Sequence of SCRIB_1, Q14160 (Q14160 718-814): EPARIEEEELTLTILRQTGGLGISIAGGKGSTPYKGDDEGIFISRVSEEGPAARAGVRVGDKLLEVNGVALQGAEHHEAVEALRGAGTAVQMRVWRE

[26] = target: T10, SIPA1L2, Q9P2F8
T10 sequence (Q9P2F8 945-1036, limits assumed, looked up): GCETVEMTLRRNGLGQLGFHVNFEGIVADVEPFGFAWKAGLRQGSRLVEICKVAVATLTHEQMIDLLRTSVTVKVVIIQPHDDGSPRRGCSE

[27] = target: T11, SNTA1, Q13424
T11 sequence (Q13424 82-180, limits assumed, looked up): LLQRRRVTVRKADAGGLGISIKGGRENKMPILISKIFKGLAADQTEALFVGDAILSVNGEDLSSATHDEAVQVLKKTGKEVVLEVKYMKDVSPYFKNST

Binder: KKMLQRRTLL [OR8G1, Q15617]
- pKd [1]: below the threshold
- pKd [2]: 3.89
- pKd [3]: 4.51
- pKd [4]: below the threshold
- pKd [5]: below the threshold
- pKd [6]: below the threshold
- pKd [7]: 3.89
- pKd [8]: below the threshold
- pKd [9]: below the threshold
- pKd [10]: below the threshold
- pKd [11]: below the threshold
- pKd [12]: below the threshold
- pKd [13]: below the threshold
- pKd [14]: below the threshold
- pKd [15]: below the threshold
- pKd [16]: below the threshold
- pKd [17]: below the threshold
- pKd [18]: below the threshold
- pKd [19]: 5.13
- pKd [20]: below the threshold
- pKd [21]: below the threshold
- pKd [22]: 4.61
- pKd [23]: 3.99
- pKd [24]: below the threshold
- pKd [25]: 3.71
- pKd [26]: below the threshold
- pKd [27]: 3.58

Binder: QSGLYESEEL [MYOT, Q9UBF9]
- pKd [1]: below the threshold
- pKd [2]: 4.38
- pKd [3]: 3.63
- pKd [4]: below the threshold
- pKd [5]: 3.88
- pKd [6]: below the threshold
- pKd [7]: below the threshold
- pKd [8]: below the threshold
- pKd [9]: below the threshold
- pKd [10]: below the threshold
- pKd [11]: below the threshold
- pKd [12]: below the threshold
- pKd [13]: below the threshold
- pKd [14]: below the threshold
- pKd [15]: below the threshold
- pKd [16]: 5.2
- pKd [17]: below the threshold
- pKd [18]: below the threshold
- pKd [19]: 4.88
- pKd [20]: below the threshold
- pKd [21]: 5.09
- pKd [22]: 3.63
- pKd [23]: below the threshold
- pKd [24]: below the threshold
- pKd [25]: 3.76
- pKd [26]: below the threshold
- pKd [27]: below the threshold

Binder: AQRARSPSDV [GPR12, P47775]
- pKd [1]: below the threshold
- pKd [2]: below the threshold
- pKd [3]: below the threshold
- pKd [4]: 3.49
- pKd [5]: 3.67
- pKd [6]: below the threshold
- pKd [7]: below the threshold
- pKd [8]: below the threshold
- pKd [9]: below the threshold
- pKd [10]: below the threshold
- pKd [11]: below the threshold
- pKd [12]: below the threshold
- pKd [13]: below the threshold
- pKd [14]: below the threshold
- pKd [15]: below the threshold
- pKd [16]: below the threshold
- pKd [17]: below the threshold
- pKd [18]: 3.57
- pKd [19]: below the threshold
- pKd [20]: below the threshold
- pKd [21]: below the threshold
- pKd [22]: 3.48
- pKd [23]: 3.99
- pKd [24]: below the threshold
- pKd [25]: below the threshold
- pKd [26]: below the threshold
- pKd [27]: below the threshold

Binder: PYSESDDDWC [CACNA1A, O00555]
- pKd [1]: below the threshold
- pKd [2]: 3.51
- pKd [3]: below the threshold
- pKd [4]: below the threshold
- pKd [5]: 3.7
- pKd [6]: below the threshold
- pKd [7]: below the threshold
- pKd [8]: 3.62
- pKd [9]: below the threshold
- pKd [10]: below the threshold
- pKd [11]: below the threshold
- pKd [12]: below the threshold
- pKd [13]: below the threshold
- pKd [14]: below the threshold
- pKd [15]: below the threshold
- pKd [16]: below the threshold
- pKd [17]: below the threshold
- pKd [18]: 4
- pKd [19]: below the threshold
- pKd [20]: 3.92
- pKd [21]: 3.68
- pKd [22]: below the threshold
- pKd [23]: below the threshold
- pKd [24]: below the threshold
- pKd [25]: below the threshold
- pKd [26]: below the threshold
- pKd [27]: below the threshold
